The test concerns the target other cell components, including other HLA class I alleles, of the B-LCL lines.

On to “FL-labeled HLA-A*0301 reference peptide KVFPC(FL)ALINK”, for which the relative peptide-binding percentage was < 20%.

These data come from patent publication US20070025968A1, “Methods for selecting and producing T cell peptide epitopes and vaccines incorporating said selected epitopes” (priority 1996, published 2007).
